B1: Antibody 077.D03 (antibody, V domains shown)
VH: QSVEESGGRLVTPGTPLTLTCTVSGIDLSSNAMSWVRQAPGKGLEWIGFISSSGTTYYASWAKGRFTISKTSTTVDLKITSPTTEDTATYFCTRFDLWGQGTLVTVSS
VL: DVVMTQTPASVSEPVGGTVTINCQASQSITTALAWYQQKPGQPPKLLIYKASTLASGVSSRFKGSGSGAEYTLTISDLECADAATYYCQCTGYDTSYVGGFGGGTEVVVK
notes: rabbit IgG in B-cell supernatant
B2: Antibody D11 (antibody, V domains shown)
VH: QEHLVESGGGLVQPEGSLTLTCTASGFDFSSDDMSWVRQAPGKGLEWIGVIGTGNGGTYYASWAKGRFTISKTSSTTVTLQMTSLTAADTATYFCAAFWGLWGPGTLVTVSS
VL: AQVLTQTPSPVSAAVGGTVTINCQSSQNVYRNNRLAWFQQKPGQPPKLLIYTASTLASGVPSRFKGSGSGTQFTLTISDLECDDAATYYCAGGYSTDIYTFGGGTEVVVR
notes: as for B1

Legend:
[1] = biological target: T1, recombinant Fc chimeric conjugate of human HER2 (human, UniProt P04626 23-652); assay: ELISA, coated antigen
T1 construct: extracellular domain; Coated on the ELISA plate
Experimental: (§1) Microtiter plates were coated with a) c-Met, IGF-1R, EGFR, HER2, and/or HER3 protein or b) EGFR, HER2, and/or HER3 (recombinant Fc chimeric conjugates of human c-Met, IGF-1R, EGFR, HER2, HER3 or IL12 Rβ1). After a blocking process, specific antibodies from B-cell supernatants bind to the targets and are then detected by a POD-labeled anti-rabbit IgG antibody. The IL12R binding was used as a counter-screen.
(§2) 12.5 μL 0.5 μg/mL protein in PBS was transferred to a microtiter plate incubated and washed 3× with Wash Buffer. 90 μL Block Buffer was added to each well, incubated and washed. 12.5 μL Standard Antibody (Anti-EGF-Receptor; HER2 Rabbit anti-Human Monoclonal (extracellular domain) (SP3) Antibody; HER3 (N-terminal) antibody; start concentration 2 μg/ml; IL-12Rbeta1 antibody start concentration 500 ng/ml) in 1:2 dilutions or sample diluted in ELISA buffer was added, incubated and washed. 12.5 μl 1:5000 POD-Antibody (Anti-rabbit IgG, peroxidase-linked species-specific Fab2 fragment (from donkey) (ECL); assay dilution: 1:5000) in Elisa Buffer was added, incubated and washed. 15 μl TMB was added and 15 μl HCl was added after sufficient development. Absorbance (Optical Density O.D.) was read at 450 nm/620 nm.

[2] = biological target: T2, recombinant Fc chimeric conjugate of human c-Met (human, UniProt P08581 25-932); assay: ELISA, coated antigen
T2 construct: extracellular domain; Coated on the ELISA plate
Experimental: as §1, §2

[3] = biological target: T3, recombinant Fc chimeric conjugate of human EGFR (human, UniProt P00533 25-645); assay: ELISA, coated antigen
T3 construct: extracellular domain; Coated on the ELISA plate; also called HER1; Her1
Experimental: as §1, §2

[4] = biological target: T4, recombinant Fc chimeric conjugate of human HER3 (human, UniProt P21860 20-643); assay: ELISA, coated antigen; supernatant IgG 69.04 ng/mL
T4 construct: extracellular domain; Coated on the ELISA plate
Experimental: as §1, §2

[5] = biological target: T1, recombinant Fc chimeric conjugate of …; assay: ELISA, coated antigen; supernatant IgG 69.04 ng/mL
Experimental: as §1, §2

[6] = biological target: T2, recombinant Fc chimeric conjugate of …; assay: ELISA, coated antigen; supernatant IgG 69.04 ng/mL
Experimental: as §1, §2

[7] = biological target: T5, recombinant Fc chimeric conjugate of human IGF-1R (human, UniProt P08069 31-935); assay: ELISA, coated antigen
T5 construct: extracellular domain; Coated on the ELISA plate
T5 sequence (P08069 31-935, change not shown): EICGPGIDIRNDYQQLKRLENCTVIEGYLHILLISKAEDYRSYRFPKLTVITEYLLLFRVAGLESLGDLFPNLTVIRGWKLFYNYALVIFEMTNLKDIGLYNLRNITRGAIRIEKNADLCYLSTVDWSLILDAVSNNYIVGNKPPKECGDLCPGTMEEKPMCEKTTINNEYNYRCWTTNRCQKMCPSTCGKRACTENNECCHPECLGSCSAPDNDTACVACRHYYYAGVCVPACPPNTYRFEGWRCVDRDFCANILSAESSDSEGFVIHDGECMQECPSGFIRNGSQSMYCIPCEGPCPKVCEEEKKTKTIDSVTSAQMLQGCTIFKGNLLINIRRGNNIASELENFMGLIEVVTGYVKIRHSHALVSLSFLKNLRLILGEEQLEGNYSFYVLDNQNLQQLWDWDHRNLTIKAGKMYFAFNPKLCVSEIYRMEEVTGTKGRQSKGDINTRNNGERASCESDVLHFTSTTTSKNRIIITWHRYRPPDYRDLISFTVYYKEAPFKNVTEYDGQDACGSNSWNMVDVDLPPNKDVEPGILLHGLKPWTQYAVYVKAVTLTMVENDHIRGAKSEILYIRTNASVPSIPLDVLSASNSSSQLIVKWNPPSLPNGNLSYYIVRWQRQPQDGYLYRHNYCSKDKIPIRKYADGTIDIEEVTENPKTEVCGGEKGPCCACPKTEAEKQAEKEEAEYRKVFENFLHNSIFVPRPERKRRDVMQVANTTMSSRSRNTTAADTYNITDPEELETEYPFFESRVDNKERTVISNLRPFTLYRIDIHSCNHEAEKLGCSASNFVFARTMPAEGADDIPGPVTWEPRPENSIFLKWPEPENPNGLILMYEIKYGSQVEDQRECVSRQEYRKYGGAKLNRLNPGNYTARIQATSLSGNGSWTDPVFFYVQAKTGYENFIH
Experimental: as §1, §2

T2 sequence (P08581 25-932, change not shown): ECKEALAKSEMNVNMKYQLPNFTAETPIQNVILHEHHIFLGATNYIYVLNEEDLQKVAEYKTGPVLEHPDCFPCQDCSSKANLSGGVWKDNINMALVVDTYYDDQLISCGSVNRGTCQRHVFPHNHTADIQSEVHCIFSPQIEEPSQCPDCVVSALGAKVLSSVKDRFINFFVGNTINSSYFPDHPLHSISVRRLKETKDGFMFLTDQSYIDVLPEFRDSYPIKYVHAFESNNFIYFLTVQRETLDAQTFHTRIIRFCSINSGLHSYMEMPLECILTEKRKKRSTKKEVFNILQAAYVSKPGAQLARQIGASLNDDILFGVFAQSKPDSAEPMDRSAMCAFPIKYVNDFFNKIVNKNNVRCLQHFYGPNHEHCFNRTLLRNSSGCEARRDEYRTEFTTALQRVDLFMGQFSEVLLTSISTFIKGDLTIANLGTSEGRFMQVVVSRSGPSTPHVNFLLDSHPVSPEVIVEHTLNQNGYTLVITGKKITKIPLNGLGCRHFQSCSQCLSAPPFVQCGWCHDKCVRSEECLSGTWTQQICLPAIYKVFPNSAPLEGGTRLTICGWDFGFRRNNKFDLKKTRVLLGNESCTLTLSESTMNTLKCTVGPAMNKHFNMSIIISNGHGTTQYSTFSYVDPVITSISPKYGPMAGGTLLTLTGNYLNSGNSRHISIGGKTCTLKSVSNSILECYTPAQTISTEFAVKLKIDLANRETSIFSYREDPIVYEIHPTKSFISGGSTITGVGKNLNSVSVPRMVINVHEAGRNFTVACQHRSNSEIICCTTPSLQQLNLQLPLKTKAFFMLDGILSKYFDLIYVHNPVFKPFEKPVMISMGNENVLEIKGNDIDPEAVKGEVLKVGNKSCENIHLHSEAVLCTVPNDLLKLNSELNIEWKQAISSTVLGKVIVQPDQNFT
T4 sequence (P21860 20-643, change not shown): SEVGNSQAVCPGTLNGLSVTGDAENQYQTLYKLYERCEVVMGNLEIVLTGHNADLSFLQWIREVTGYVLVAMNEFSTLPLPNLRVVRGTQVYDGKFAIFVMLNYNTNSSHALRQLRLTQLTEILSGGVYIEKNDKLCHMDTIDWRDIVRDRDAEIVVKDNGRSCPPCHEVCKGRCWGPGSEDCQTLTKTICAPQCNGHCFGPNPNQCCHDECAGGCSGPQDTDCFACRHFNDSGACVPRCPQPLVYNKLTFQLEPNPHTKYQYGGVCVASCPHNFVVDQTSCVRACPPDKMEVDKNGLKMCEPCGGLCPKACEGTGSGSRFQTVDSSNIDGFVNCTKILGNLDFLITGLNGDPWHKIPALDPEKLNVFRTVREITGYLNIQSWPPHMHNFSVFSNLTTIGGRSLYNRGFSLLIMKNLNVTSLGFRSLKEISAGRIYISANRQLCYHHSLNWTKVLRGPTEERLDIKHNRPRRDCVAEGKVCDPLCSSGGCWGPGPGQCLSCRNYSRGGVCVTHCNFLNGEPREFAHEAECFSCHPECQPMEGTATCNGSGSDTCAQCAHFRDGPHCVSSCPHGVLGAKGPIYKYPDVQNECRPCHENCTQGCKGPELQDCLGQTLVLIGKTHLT

Binder	binding result [1]	binding result [2]	binding result [3]	Optical density (OD) [4]	Optical density (OD) [5]	Optical density (OD) [6]	binding result [7]
B1	no binding (tested: OD 0.1 or lower)	no binding (tested: OD 0.1 or lower)	no binding (tested: OD 0.1 or lower)	–	–	–	–
B2	–	–	–	1.76 OD	0.119 OD	0.149 OD	no binding (tested: OD 0.1 or lower)

Source: US20150259430A1 (MAB DISCOVERY, published 2015)
